Measurements reported in US20240018502A1.
Where a chain is given by its changes, count along the chain named. In names and notes the source's numbering stands.

B1: MTSP-1 I41D/Y59F/C122S/G151N/Q192T (enzyme)
chain: VVGGTDADEGEWPWQVSLHALGQGHDCGASLISPNWLVSAAHCFIDDRGFRYSDPTQWTAFLGLHDQSQRSAPGVQERRLKRIISHPFFNDFTFDYDIALLELEKPAEYSSMVRPISLPDASHVFPAGKAIWVTGWGHTQYGGTNALILQKGEIRVINQTTCENLLPQQITPRMMCVGFLSGGVDSCTGDSGGPLSSVEADGRIFQAGVVSWGDGCAQRNKPGVYTRLPLFRDWIKENTGV
B2: MTSP-1 protease domain I41E/F99L/C122S/G151N/Q192S (enzyme)
chain: B1 chain with D26E, F44Y, F94L, T188S
B3: MTSP-1 protease domain I41S/F99L/C122S/G151N/Q175P/Q192V (enzyme)
chain: B1 chain with D26S, F44Y, F94L, Q169P, T188V
B4: MTSP-1 protease domain I41E/F99L/C122S/G151N/Q175G/Q192T (enzyme)
chain: B1 chain with D26E, F44Y, F94L, Q169G
B5: MTSP-1 protease domain I41S/C122S/G151N/Q175R/Q192R (enzyme)
chain: B1 chain with D26S, F44Y, Q169R, T188R
B6: MTSP-1 protease domain I41S/F99M/C122S/G151N/Q175P/Q192S (enzyme)
chain: B1 chain with D26S, F44Y, F94M, Q169P, T188S
B7: MTSP-1 protease domain I41S/C122S/G151N/Q175D/Q192R (enzyme)
chain: B1 chain with D26S, F44Y, Q169D, T188R
B8: MTSP-1 protease domain I41E/F99L/C122S/G151N/Q175R/Q192T (enzyme)
chain: B1 chain with D26E, F44Y, F94L, Q169R
B9: MTSP-1 protease domain I41G/F99L/C122S/G151N/Q175R/Q192A (enzyme)
chain: B1 chain with D26G, F44Y, F94L, Q169R, T188A
B10: MTSP-1 protease domain F99L/C122S/G151N/Q192T (enzyme)
chain: B1 chain with D26I, F44Y, F94L
B11: MTSP-1 protease domain I41D/F99L/C122S/G151N (enzyme)
chain: B1 chain with F44Y, F94L, T188Q
B12: MTSP-1 I41S/D60bT/F60eS/Y60gW/D96K/F97G/ins97aV/T98P/F99L/C122S/G151H/Q175L/Q192D (enzyme)
chain: VVGGTDADEGEWPWQVSLHALGQGHSCGASLISPNWLVSAAHCYIDTRGSRWSDPTQWTAFLGLHDQSQRSAPGVQERRLKRIISHPFFNKGVPLDYDIALLELEKPAEYSSMVRPISLPDASHVFPAGKAIWVTGWGHTQYGGTHALILQKGEIRVINQTTCENLLPQLITPRMMCVGFLSGGVDSCDGDSGGPLSSVEADGRIFQAGVVSWGDGCAQRNKPGVYTRLPLFRDWIKENTGV
B13: MTSP-1 protease domain I41S/F99L/C122S/Q175P/Q192V (enzyme)
chain: B1 chain with D26S, F44Y, F94L, N145G, Q169P, T188V
B14: MTSP-1 protease domain I41S/F99L/C122S/G151N/Q175P (enzyme)
chain: B1 chain with D26S, F44Y, F94L, Q169P, T188Q
B15: MTSP-1 protease domain I41E/F99L/C122S/Q175G/Q192T (enzyme)
chain: B1 chain with D26E, F44Y, F94L, N145G, Q169G
B16: MTSP-1 protease domain I41E/F99L/C122S/G151N/Q175G (enzyme)
chain: B1 chain with D26E, F44Y, F94L, Q169G, T188Q
B17: MTSP-1 protease domain I41D/Y59F/F99L/C122S/G151N/Q192T/V213A (enzyme)
chain: B1 chain with F94L, V210A
B18: MTSP-1 protease domain I41D/G43A/F99L/C122S/G151N/Q192T/P232S/K239R (enzyme)
chain: B1 chain with G28A, F44Y, F94L, P229S, K236R
B19: MTSP-1 protease domain I41D/G43A/D96E/F99L/C122S/G151N/Q192T (enzyme)
chain: B1 chain with G28A, F44Y, D91E, F94L
B20: MTSP-1 protease domain I41D/D96E/F99L/C122S/G151N/Q192T (enzyme)
chain: B1 chain with F44Y, D91E, F94L
B21: MTSP-1 protease domain I41D/D96E/C122S/G151N/Q192T (enzyme)
chain: B1 chain with F44Y, D91E
B22: MTSP-1 protease domain I41D/D96E/F99L/C122S/G151N/Q192T/D217E (enzyme)
chain: B1 chain with F44Y, D91E, F94L, D214E
B23: MTSP-1 Q38H/D60bT/F60eS/Y60gW/D96K/F97G/ins97aV/T98P/F99L/C122S/G151H/Q175L/Q192D (enzyme)
chain: B12 chain with Q23H, S26I
B24: MTSP-1 protease domain I41D/F99L/M117T/C122S/G151N/Q192T/A204D/D217E (enzyme)
chain: B1 chain with F44Y, F94L, M112T, A200D, D214E
B25: MTSP-1 protease domain I41D/F99L/C122S/G151N/Q192T/D217E (enzyme)
chain: B1 chain with F44Y, F94L, D214E
B26: MTSP-1 protease domain I41D/F99L/C122S/I136M/G151N/Q192T/D217L/K224R (enzyme)
chain: B1 chain with F44Y, F94L, I131M, D214L, K221R
B27: MTSP-1 protease domain I41D/F60eI/D96E/F99L/C122S/G151N/Q192T (enzyme)
chain: B1 chain with F44Y, F50I, D91E, F94L
B28: MTSP-1 protease domain I41D/C122S/G151N/Q192T/D217E (enzyme)
chain: B1 chain with F44Y, D214E
B29: MTSP-1 protease domain D96E/C122S/G151N/Q192T (enzyme)
chain: B1 chain with D26I, F44Y, D91E
B30: MTSP-1 protease domain Y59F/C122S/G151N/Q192T (enzyme)
chain: B1 chain with D26I
B31: MTSP-1 protease domain Q38H/I41S/D60bT/F60eS/Y60gW/D96K/F97G/F99L/C122S/G151H/Q175L/Q192D (enzyme)
chain: VVGGTDADEGEWPWQVSLHALGHGHSCGASLISPNWLVSAAHCYIDTRGSRWSDPTQWTAFLGLHDQSQRSAPGVQERRLKRIISHPFFNKGTLDYDIALLELEKPAEYSSMVRPISLPDASHVFPAGKAIWVTGWGHTQYGGTHALILQKGEIRVINQTTCENLLPQLITPRMMCVGFLSGGVDSCDGDSGGPLSSVEADGRIFQAGVVSWGDGCAQRNKPGVYTRLPLFRDWIKENTGV
B32: MTSP-1 protease domain I41S/ins97aV/C122S/Q192D (enzyme)
chain: B12 chain with T47D, S50F, W52Y, K91D, G92F, P94T, L95F, H146G, L170Q
B33: MTSP-1 protease domain I41S/F97L/F99L/C122S/Q192S (enzyme)
chain: B1 chain with D26S, F44Y, F92L, F94L, N145G, T188S
B34: MTSP-1 Q38H/I41S/F60eS/Y60gW/D96K/F97G/ins97aV/T98P/F99L/C122S/G151H/Q175L/Q192D (enzyme)
chain: B12 chain with Q23H, T47D
B35: MTSP-1 protease domain I41T/F97R/ins97aV/T98L/C122S/Q192S (enzyme)
chain: VVGGTDADEGEWPWQVSLHALGQGHTCGASLISPNWLVSAAHCYIDDRGFRYSDPTQWTAFLGLHDQSQRSAPGVQERRLKRIISHPFFNDRVLFDYDIALLELEKPAEYSSMVRPISLPDASHVFPAGKAIWVTGWGHTQYGGTGALILQKGEIRVINQTTCENLLPQQITPRMMCVGFLSGGVDSCSGDSGGPLSSVEADGRIFQAGVVSWGDGCAQRNKPGVYTRLPLFRDWIKENTGV
B36: MTSP-1 protease domain I41S/F97V/T98N/F99L/C122S/Q192S (enzyme)
chain: B1 chain with D26S, F44Y, F92V, T93N, F94L, N145G, T188S
B37: MTSP-1 protease domain I41S/F97G/ins97aA/T98L/C122S/Q192A (enzyme)
chain: B35 chain with T26S, R92G, V93A, S189A

Biological target: plasma purified human complement protein C3 (human) (UniProt P01024)
Assay: cell-based or functional assay

Sequence of plasma purified human complement protein C3 (human) (P01024 23-667, chain 1 of 2): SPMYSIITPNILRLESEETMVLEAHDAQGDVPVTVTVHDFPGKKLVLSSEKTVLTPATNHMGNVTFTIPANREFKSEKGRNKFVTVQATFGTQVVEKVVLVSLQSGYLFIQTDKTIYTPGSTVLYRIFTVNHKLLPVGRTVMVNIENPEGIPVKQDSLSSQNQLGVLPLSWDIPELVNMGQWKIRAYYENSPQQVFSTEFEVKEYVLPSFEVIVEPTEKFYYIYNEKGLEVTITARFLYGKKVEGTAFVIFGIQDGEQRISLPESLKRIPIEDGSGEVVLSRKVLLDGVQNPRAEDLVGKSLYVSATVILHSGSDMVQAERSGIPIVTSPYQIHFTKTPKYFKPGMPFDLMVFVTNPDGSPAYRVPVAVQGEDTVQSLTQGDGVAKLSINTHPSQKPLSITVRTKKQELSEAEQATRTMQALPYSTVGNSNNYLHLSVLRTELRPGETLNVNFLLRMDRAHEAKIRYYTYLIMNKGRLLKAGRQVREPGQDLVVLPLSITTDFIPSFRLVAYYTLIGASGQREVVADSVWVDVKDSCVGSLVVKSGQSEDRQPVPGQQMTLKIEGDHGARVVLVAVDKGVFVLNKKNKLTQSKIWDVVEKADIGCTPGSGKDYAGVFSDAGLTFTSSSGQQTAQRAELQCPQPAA
Sequence of plasma purified human complement protein C3 (human) (P01024 672-1663, chain 2 of 2): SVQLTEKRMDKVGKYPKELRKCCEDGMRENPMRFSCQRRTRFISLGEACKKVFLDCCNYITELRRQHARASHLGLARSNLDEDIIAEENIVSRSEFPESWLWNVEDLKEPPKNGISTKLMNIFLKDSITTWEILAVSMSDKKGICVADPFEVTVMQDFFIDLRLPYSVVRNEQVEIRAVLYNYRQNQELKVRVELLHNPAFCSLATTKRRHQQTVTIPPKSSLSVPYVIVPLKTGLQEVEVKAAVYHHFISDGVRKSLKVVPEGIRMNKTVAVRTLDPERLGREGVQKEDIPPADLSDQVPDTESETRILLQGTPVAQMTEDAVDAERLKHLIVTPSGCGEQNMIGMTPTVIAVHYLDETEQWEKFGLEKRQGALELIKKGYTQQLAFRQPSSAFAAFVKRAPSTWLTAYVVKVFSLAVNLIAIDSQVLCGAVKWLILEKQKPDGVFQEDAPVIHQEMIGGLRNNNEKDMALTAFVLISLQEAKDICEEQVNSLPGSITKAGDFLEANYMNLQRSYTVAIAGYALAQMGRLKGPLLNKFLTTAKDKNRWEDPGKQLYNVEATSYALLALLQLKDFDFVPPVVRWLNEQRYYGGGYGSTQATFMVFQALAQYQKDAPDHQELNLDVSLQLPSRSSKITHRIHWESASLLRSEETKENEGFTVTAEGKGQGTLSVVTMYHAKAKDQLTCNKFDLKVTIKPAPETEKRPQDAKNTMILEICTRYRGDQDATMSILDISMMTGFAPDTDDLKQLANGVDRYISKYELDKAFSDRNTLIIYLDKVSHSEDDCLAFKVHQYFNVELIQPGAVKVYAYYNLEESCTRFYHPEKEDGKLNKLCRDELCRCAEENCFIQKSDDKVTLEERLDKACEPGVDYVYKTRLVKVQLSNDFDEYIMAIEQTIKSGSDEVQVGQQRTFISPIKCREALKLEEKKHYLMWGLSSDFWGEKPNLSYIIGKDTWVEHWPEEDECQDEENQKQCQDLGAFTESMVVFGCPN

| Binder | EC50 of hC3 cleavage | EC50 hC3 cleavage |
| --- | --- | --- |
| B1 | 56.7 nM | – |
| B2 | – | 112 nM |
| B3 | – | 35.8 nM |
| B4 | – | 30.2 nM |
| B5 | – | 134 nM |
| B6 | – | 139 nM |
| B7 | – | 96.8 nM |
| B8 | – | 155 nM |
| B9 | – | 74.5 nM |
| B10 | – | 225 nM |
| B11 | – | 16.9 nM |
| B12 | 17.1 nM | – |
| B13 | – | 64.3 nM |
| B14 | – | 13.9 nM |
| B15 | – | 33.9 nM |
| B16 | – | 20 nM |
| B17 | – | 414 nM |
| B18 | – | 37.6 nM |
| B19 | – | 45 nM |

| Binder | EC50 of hC3 cleavage | EC50 hC3 cleavage |
| --- | --- | --- |
| B20 | – | 51.5 nM |
| B21 | – | 78.8 nM |
| B22 | – | 27.6 nM |
| B23 | 215 nM | – |
| B24 | – | 25.3 nM |
| B25 | – | 22 nM |
| B26 | – | 32.2 nM |
| B27 | – | 47.9 nM |
| B28 | – | 34.2 nM |
| B29 | – | 298 nM |
| B30 | – | 288 nM |
| B31 | – | 7.34 nM |
| B32 | – | 336 nM |
| B33 | – | 19.1 nM |
| B34 | 13.1 nM | – |
| B35 | – | 13.2 nM |
| B36 | – | 29.4 nM |
| B37 | – | 6.75 nM |
